Measured values: patent US20160264653A1 (published 2016)

B3: human ephrin-A4 ligand (EFNA4) expressed on the cell surface (ligand)
chain: LRHVVYWNSSNPRLLRGDAVVELGLNDYLDIVCPHYEGPGPPEGPETFALYMVDWPGYESCQAEGPRAYKRWVCSLPFGHVQFSEKIQRFTPFSLGFEFLPGETYYYISVPTPESSGQCLRLQVSVCCKERKSESAHPVGSPGES
notes: GPI-anchored; Cells used: HEK293T.hEFNA4 (retroviral overexpression), parental HEK293T (low level), Jurkat, Z138, K562, PC3, NTX tumor cells; also called hEFNA4; HEK293T.hEFNA4 cells

Key:
[1] = biological target: B3; experiment: cell-based or functional assay
[2] = biological target: T1, human ephrin-A4-His (human, UniProt P52798 26-170, limits assumed); experiment: ELISA; titrated ephrin-A4-His coated, 0.5 ug/ml hSC4.15 (FIG. 13C)
T1 construct: also called hEFNA4-ECD-His; EFNA4 His fusion protein; not shown: His tag
T1 sequence: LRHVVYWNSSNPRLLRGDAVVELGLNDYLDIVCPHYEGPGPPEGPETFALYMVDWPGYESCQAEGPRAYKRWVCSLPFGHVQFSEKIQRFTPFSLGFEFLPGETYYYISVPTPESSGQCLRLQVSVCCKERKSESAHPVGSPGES

[3] = biological target: T2, mouse ephrin-A4-His (mouse, UniProt O08542 26-175, limits assumed); experiment: as above
T2 construct: also called murine EFNA4-His; not shown: His tag
T2 sequence (looked up): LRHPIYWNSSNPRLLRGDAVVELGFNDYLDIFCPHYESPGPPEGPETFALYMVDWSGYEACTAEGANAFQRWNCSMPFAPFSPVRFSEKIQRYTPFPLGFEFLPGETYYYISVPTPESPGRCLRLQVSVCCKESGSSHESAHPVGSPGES

[4] = biological target: T3, EFNA4 antigen (human, UniProt P52798 26-170, limits assumed); experiment: SPR (Biacore); fixed antibody, antigen concentration series; 1:1 Langmuir model
T3 construct: also called ephrin-A4 antigen
T3 sequence: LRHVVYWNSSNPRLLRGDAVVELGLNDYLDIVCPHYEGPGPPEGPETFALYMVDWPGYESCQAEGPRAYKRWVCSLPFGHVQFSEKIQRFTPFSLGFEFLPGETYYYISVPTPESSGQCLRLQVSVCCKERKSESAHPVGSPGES
Experimental: Finally, the affinity of selected modulators was measured by surface plasmon resonance (Biacore System, GE Healthcare). Based on a standard antigen concentration series and using a 1:1 Langmuir binding model, the Kd of the antibody binding to antigen and the kinetic constants kₒₙ and koff were determined.

[5] = biological target: T4, Fc portion of human IgG alone (human, UniProt P01857-1 100-330 = IgG part, limits assumed); experiment: flow cytometry on Jurkat cells (known to express EFNA) (FIG. 12A)
T4 construct: domain: Fc; also called human IgG Fcgamma1 fragment

[6] = biological target: T5, EphB4-Fc (human, UniProt P54760 16-539, limits assumed); experiment: flow cytometry; EphB-Fc on HEK293T.hEFNA4 cells (FIG. 20B)
T5 construct: extracellular domain; not shown: human IgG1 Fc
T5 sequence (looked up): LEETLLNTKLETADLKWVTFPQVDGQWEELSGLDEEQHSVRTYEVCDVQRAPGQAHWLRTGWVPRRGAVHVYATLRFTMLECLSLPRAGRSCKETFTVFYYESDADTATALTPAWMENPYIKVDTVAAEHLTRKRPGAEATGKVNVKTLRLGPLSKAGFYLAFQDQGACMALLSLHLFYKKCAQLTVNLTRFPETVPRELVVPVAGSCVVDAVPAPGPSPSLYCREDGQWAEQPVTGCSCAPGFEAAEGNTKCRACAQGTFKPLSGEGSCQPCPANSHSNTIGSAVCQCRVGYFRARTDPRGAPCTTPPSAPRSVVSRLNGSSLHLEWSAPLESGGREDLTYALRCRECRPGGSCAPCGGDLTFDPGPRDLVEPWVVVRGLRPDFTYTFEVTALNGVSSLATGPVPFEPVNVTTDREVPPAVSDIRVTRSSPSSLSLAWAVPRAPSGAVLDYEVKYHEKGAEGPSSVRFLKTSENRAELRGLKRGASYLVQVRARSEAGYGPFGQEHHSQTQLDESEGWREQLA

B1: hSC4.15 (antibody, V domains shown)
VH: EVQLVESGGGLVKPGGSLRLSCAASGFTFSTYGMSWVRQAPGKGLEWVATISSGGTYTYYPDSVKGRFKISRDNAKNSLYLQMNSLRAEDTAVYYCTRHDPNDGYYFLFAYWGQGTLVTVSS
VL: EIVLTQSPGTLSLSPGERATLSCKASQSVGNNVAWYQQKPGQAPRLLIYYASNRYTGIPDRFSGSGSGTDFTLTISRLEPEDFAVYYCQQHYSSPLTFGAGTKLEIK
notes: also called humanized SC4.15
EC50 (pM) of killing, saporin-Fab in vitro cytotoxicity assay, HEK293T.hEFNA4 cells [1]: 13.7 pM
EC50 (pM) of killing, saporin-Fab in vitro cytotoxicity assay, PC3 cells [1]: 5.4 pM
binding result [2]: binds
binding result [3]: binds

B2: hSC4.47 (antibody, human IgG1, V domains shown)
VH: QVQLVQSGAEVKKPGASVKVSCKASGYTFTYFYMNWVRQAPGQGLEWVGQINPNNGGTAYAQKFQGRVTMTRDTSTSTVYMELSSLRSEDTAVYYCARWVGTHYFDYWGQGTTLTVSS
VL: EIVLTQSPATLSLSPGERATLSCRASQSVSSSSYTYIHWYQQKPGQAPRLLINFASNLESGIPARFSGSGSGTDFTLTISSLEPEDFAVYYCQHSWEIPPTFGGGTKLEIK
notes: also called humanized SC4.47
Kd [4]: < 0.1 nM

B3
binding result [5]: no binding
binding result [6]: no binding
